Source: patent US20240166738A1 (Alector, published 2024)
Changes are numbered by the printed parent chain.

B1: TM-88 (antibody, V domains shown)
VH: EAQLQQSGPVLVKPGASVKMSCKTSGYTFTDYYINWVKQSHGKSLEWIGVINPYSGATYYTQKFKGKATLTVDKSSSTAYMELNSQTSEDSAVYYCARGGYDYGHWYFDVWGTGTTVTVSS
VL: ETTVTQSPASLSMAIGEKVTIRCITSSDIDDHMNWYRQKPGEPPEFLISEGNALRPGVPSRFSSSGYGTDFIFTIENILSEDVADYYCLQSDNLPLTFGAGTKLELK
B2: TM-63 (antibody, V domains shown)
VH: QVQLQQPGAELVKFGASVKLSCKASGYTFTSFWMHWVKQRPGQGLEWIGNIDPSDSETHYSQKFKDKATLTVDRSSNTAYIQLSSLTSEDSAVYYCARSSNWDNFDYWGQGTTVTVSS
VL: DIVMTQASPSVSVTPGESVSISCRSSQSLLHVNGNTYLYWFLQRPGRSPRLLIYRMSNLASGVPDRFSGSGSGTAFTLRISRVEAEDVGVYYCMQHLQYPFSFGSGTKLEMK
B3: TM-64 (antibody, V domains shown)
VH: QVQLQQPGAELVKPGASVKLSCKASGYTFTSYWMHWVKQRPGHGLEWIGNIDPSDSDTHYNQNFRGKATLTVDKFSTTAYMHLSSLTSEDSAVYYCARSRGGTYDYGEAMDYWGQGTSVTVSS
VL: B2 VL with S8A, S12P, Q27K, V32T, Y39F, R50Q, Q98E, S102T, M111I
B4: TM-28 (antibody, V domains shown)
VH: EVQLQQSGPVLVKPGPSVKISCMASVFTFNDYYIHWVKQSHGKSLEWIGLVYPYNGGTNYNQNFKGKATLTVDTSSRTAYMELNSLTSEDSAVYYCARSYFSNPIGYWGQGTLVTVSE
VL: DIVMTQSPSSLSVSVGEKVTVSCKSSQSLLNSGNQKNYLAWYQQKPGQPPKLLIYGASTRESGVPDRFTGSGSGTDFTLTISSVQAEDLAVYYCQNDHSYPLTFGAGTKLELK
B5: TM-76 (antibody, V domains shown)
VH: QVTLKESGPGILQPSQTLSLTCSFSGFSLSTSGMGVSWIRKPSGKGLEWLAHIFWDDDKRYNLFLKSRLTVSKDTSSNQVFLMITSVDTTDTATYYCARMGRQRDYFDYWGQGTSLTVSS
VL: QIILTQSPAIMSASLGEEITLTCSASLSISYVHWYQQKSGASPKLLIYGTSNLASGVPSRFSGSGSGTFYSLTISSVEAEDAADYYCHQWSIYRTFGGGTKLEMK
B6: TM-13 (antibody, V domains shown)
VH: QVQLQQSGAELVKPGASVKMSCKASGYTFTTFPIEWMKQSHGKGLEWIGNFHPYNDDTKYNEKFKGKATLTVDKSSSTVYLDLSRLTSDDSAVYYCARYFYGGMDYWGQGTSVTVSS
VL: DIQMTQSPASLSVSVGETVTITCRASENIYSSLGWYQQKQGESPQLLVFAATNLADGVPSRFSGSGSGTQYSLKINSLQSEDFGTYYCQHLWSIPWTFGGGTRLEIK
B7: TM-84 (antibody, V domains shown)
VH: B6 VH with S40N, G44S, D73E, D82E
VL: B6 VL with Q37H, E42K, I94V, R103K
B8: TM-60 (antibody, V domains shown)
VH: QVQLQQSGPELVKPGASVKLSCKASGYTFTSYDINWVKQRPGQGLEWIGWIYPRDGNTQYIEKLKGKATLTVDTSSSTAYMELHSLTSEDSAVYFCARWIFYAMDYWGQGTSVTVSS
VL: DVLMTQTPLSLPVSLGDQASISCRSSQSIVHGNGNTYLEWYLQKPGQSPKLLIYKVSNRFSGVPDRFSGSGSGTDFTLKISRVEAEDLGVYYCFQGSHLPYTFGGGTKLEIK
B9: TM-30 (antibody, V domains shown)
VH: QVQLQQSGPELVKPGASVKLSCKASDNTFTNYDVNWVRQRPGQGLEWIGWIYPRDGTTIYNEKFKGRATLTVDTSSSTAYMELHSLTSEDSAVFFCARTLPQAMDYWGQGTSVTVSS
VL: B8 VL with T7S, A19V, S28T, G32R, Y101W
B10: TM-48 (antibody, V domains shown)
VH: B8 VH
VL: B8 VL with D17N

These binders were tested against human TMEM106B (human, UniProt Q9NUM4 2-274) (assay: cell-based or functional assay).
Note: test concentration or dose not given here.

Binder	% Protection from CPE [%]
B1	78.5
B2	89.3
B3	89.3
B4	85.4
B5	89.2
B6	81.8
B7	53.1
B8	94.2
B9	104
B10	89.3
